Assay results taken from US20070202116A1, “Treatment of micro-organism infection” (priority 2001, published 2007).

Experiments:
[1] = mice
Experimental: The pharmacokinetic (PK) characteristics of Aurograb have been studied in mice. A murine model was used because efficacy and dose ranging studies have been performed in this species as were the repeat dose toxicology studies. Mice were given a single high dose as an iv bolus and then examined in duplicate for blood levels and organ distribution. Urine samples were also analysed. Samples were analysed for functional activity, measured by ELISA (blood samples only) and drug concentration (SDS PAGE/immunoblots).

EMRSA-15 = test: Data Set 1: murine sub-lethal infection, Aurograb alone; assay type: in vivo, S. aureus
Description: The murine model of staphylococcal infection is widely used and is routinely used in the assessment of antimicrobial drugs. It is a good predictor of efficacy in infected humans since S. aureus is introduced intravenously to create a bacteraemia, from which the pathogen spreads to other organs, including the kidney, liver and spleen.
Method: 20 female CD-1 mice were given a sub-lethal challenge (1.3×10^7 cfu) of a methicillin-resistant, vancomycin-sensitive strain of S. aureus (EMRSA-15, Typed Hospital Isolate, Central Manchester Healthcare Trust) in 100 μl iv bolus (all iv injections given via the lateral tail vein). 1 hour later, two groups of 10 mice, received, as 100 μl iv bolus: • 1. formulation buffer (Arginine-Urea), as negative control or • 2. Aurograb (2.0 mg/kg) in formulation buffer.
All animals were sacrificed after a further 48 h and viable cfu per gram of organ were determined.

human blood = test: Blood compatibility study (haemolysis); conditions: human blood, 37° C., 1 hour; 0.1 mg/ml
Experimental: This study was carried out by Biochemical Pharmacology department at Inveresk Research, Scotland, in order to assess the suitability of Aurograb for intravenous administration.
Blood samples were taken from healthy human volunteers, transferred to tubes containing Aurograb, Aurograb vehicle, saponin or saline and incubated at 37° C. for 1 hour. After centrifugation, the amount of haemoglobin in the supernatant was then assessed to determine haemolysis.

[2] = Storage stability and iv fluid compatibility of Aurograb; assay type: physicochemical
Experimental: The lyophilised drug is stored in glass vials at 4° C. in the dark. Overnight transport at ambient temperatures is acceptable. Avoid prolonged exposure to bright light or excessive humidity. No change in Aurograb activity after storage at 4° C. (3 months) has been observed.
After reconstitution with water, Aurograb must be stored at 4° C. and should be used within 14 hours.
Saline for iv use is compatible with reconstituted Aurograb (at a 50:50 dilution).

[3] = CD-1 mice, 1.3×10^7 cfu EMRSA-15 iv, Aurograb 2 mg/kg iv 1 hour later, 48 h

B1: Aurograb: human genetic recombinant antibody (scFv with histidine tag, SEQ ID NO: 2) binding GrfA, a staphylococcal ABC transporter protein (protein)
scFv: MAKVQLLQSATEVKKPGASVKVSCKAYGYTFTDYGITWVRQAPGQGLEWMGWISAYNGYTNYAQKFQDRITMTTDASTSTAYMELRSLRPDDTAVLYCARDREDASLLRDGHWGQGTLVTVSSGGGGSGGGGSGGGGSGGGGSETTLTQSPGTLSLSPGERATLSCRASQIVSSSYLAWYQQKPGQAPRLLIYGASSRATGIPDRFSGSGSGTDFTLTISKLEPEDFAVYYCQHYGSSSPWTSRPRDQSDIKRAAALEHHHHHH
modifications: histidine tag; human single chain (scFv) recombinant antibody
With B1 the “Time by which all organs were cleared” value ([1]; lungs, brain, liver, spleen, heart, kidney and blood) was no more than 24 h, the Blood levels ([1]; single intravenous bolus injection 10 mg/kg) was “satisfactory blood levels” and the “Kidney Log cfu/g tissue” value (EMRSA-15; [3]) was 7.20 ± 1.15 Log cfu/g tissue. The “Liver Log cfu/g tissue” value (EMRSA-15; [3]) was 3.63 ± 0.68 Log cfu/g tissue, the “Spleen Log cfu/g tissue” value (EMRSA-15; [3]) was 3.79 ± 0.82 Log cfu/g tissue and the “Reduction in viable organisms found in all three organs” value (EMRSA-15; kidney, liver and spleen, Aurograb 2 mg/kg vs formulation buffer) was 10 fold. For the same molecule, the “Haemolysis classification (ASTM F756-93)” value (human blood) was “non-haemolytic”, the “Activity after reconstitution with water” value ([2]; left at room temperature) was “slowly deteriorate” and the “Change in activity after storage” value ([2]; lyophilised drug, 4° C., 3 months) was “No change”. The “Compatibility with saline for iv use” value ([2]; reconstituted Aurograb, 50:50 dilution) was “compatible” and the “Compatibility with 20% glucose and sodium bicarbonate buffer” value ([2]; reconstituted Aurograb, reduction in ELISA activity) was “less compatible”.
